Data from the supplement of paper PMC9112550, “Optimization of the antimicrobial peptide Bac7 by deep mutational scanning” (BMC Biology, 2022).

system: Escherichia coli TOP10; test: shrunken log2 fold change of peptide-encoding DNA abundance (4.5 h post-induction vs induction); higher = less antimicrobial activity (less host growth inhibition); conditions: time post-induction: 4.5 h; library: site-saturation at positions 5, 18, 19, 20
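Note: peptides expressed intracellularly from a pBAD plasmid library in pooled LB shake-flask culture, induced with 0.3% L-arabinose, DNA abundance read by NGS, three biological replicates, DESeq2 with apeglm shrinkage.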

| Sequence | shrunken log2 fold change |
| --- | --- |
| RRIRFRPPRLPRPRPRPYSLPRP | -0.00881 |
| RRIRSRPPRLPRPRPRPGERPRP | 0.637 |
| RRIRCRPPRLPRPRPRPKPNPRP | 0.572 |
| RRIRLRPPRLPRPRPRPIGMPRP | 0.0212 |
| RRIRNRPPRLPRPRPRPWSIPRP | -0.16 |
| RRIRPRPPRLPRPRPRPLGVPRP | 0.361 |
| RRIRFRPPRLPRPRPRPKQAPRP | -0.0316 |
| RRIRNRPPRLPRPRPRPVCSPRP | -0.19 |
| RRIRVRPPRLPRPRPRPGCMPRP | -0.076 |
| RRIRIRPPRLPRPRPRPEVTPRP | -0.0113 |
| RRIRKRPPRLPRPRPRPVYSPRP | 0.0204 |
| RRIRKRPPRLPRPRPRPHWLPRP | 0.148 |
| RRIRERPPRLPRPRPRPWRVPRP | -0.0327 |
| RRIRERPPRLPRPRPRPCQAPRP | -0.0282 |
| RRIRARPPRLPRPRPRPMWCPRP | 0.172 |
| RRIRLRPPRLPRPRPRPATKPRP | 0.0731 |
| RRIRKRPPRLPRPRPRPITIPRP | -0.165 |
| RRIRGRPPRLPRPRPRPNKHPRP | 0.124 |
| RRIRGRPPRLPRPRPRPHDPPRP | 0.546 |
| RRIRKRPPRLPRPRPRPKENPRP | 0.189 |
| RRIRARPPRLPRPRPRPESSPRP | 2.39 |
| RRIRCRPPRLPRPRPRPDTEPRP | -0.0455 |
| RRIRDRPPRLPRPRPRPSPWPRP | 0.188 |
| RRIRMRPPRLPRPRPRPMDSPRP | 0.0342 |
| RRIRPRPPRLPRPRPRPTNMPRP | -0.298 |

| Sequence | shrunken log2 fold change |
| --- | --- |
| RRIRPRPPRLPRPRPRPHYRPRP | -0.112 |
| RRIRNRPPRLPRPRPRPRVPPRP | -0.134 |
| RRIRDRPPRLPRPRPRPNIMPRP | -0.367 |
| RRIRMRPPRLPRPRPRPMPQPRP | 4.29 |
| RRIRPRPPRLPRPRPRPLHIPRP | 0.656 |
| RRIRARPPRLPRPRPRPPTWPRP | 1.67 |
| RRIRTRPPRLPRPRPRPHKRPRP | -0.0155 |
| RRIRHRPPRLPRPRPRPELGPRP | -0.101 |
| RRIRPRPPRLPRPRPRPNNAPRP | -0.19 |
| RRIRCRPPRLPRPRPRPWHCPRP | -0.0285 |
| RRIRSRPPRLPRPRPRPAHRPRP | -0.0259 |
| RRIRYRPPRLPRPRPRPKWPPRP | -0.0557 |
| RRIRCRPPRLPRPRPRPEIYPRP | -0.0456 |
| RRIRSRPPRLPRPRPRPNPAPRP | -0.0743 |
| RRIRPRPPRLPRPRPRPGTCPRP | 0.182 |
| RRIRWRPPRLPRPRPRPMNSPRP | -0.0812 |
| RRIRSRPPRLPRPRPRPRMNPRP | 0.079 |
| RRIRGRPPRLPRPRPRPDSCPRP | 0.426 |
| RRIRCRPPRLPRPRPRPTNEPRP | -0.213 |
| RRIRVRPPRLPRPRPRPQITPRP | -0.229 |
| RRIRHRPPRLPRPRPRPPLWPRP | 0.323 |
| RRIRGRPPRLPRPRPRPDNHPRP | 0.125 |
| RRIRFRPPRLPRPRPRPLPKPRP | 0.55 |
| RRIRHRPPRLPRPRPRPHPRPRP | 0.224 |
| RRIRARPPRLPRPRPRPGICPRP | 0.182 |

| Sequence | shrunken log2 fold change |
| --- | --- |
| RRIRRRPPRLPRPRPRPPFQPRP | 0.746 |
| RRIRVRPPRLPRPRPRPFSCPRP | -0.323 |
| RRIRARPPRLPRPRPRPSYLPRP | -0.716 |
| RRIRNRPPRLPRPRPRPGAYPRP | -0.00116 |
| RRIRFRPPRLPRPRPRPFKEPRP | -0.173 |
| RRIRPRPPRLPRPRPRPGCEPRP | 0.113 |
| RRIRWRPPRLPRPRPRPTMHPRP | 0.454 |
| RRIRHRPPRLPRPRPRPVHGPRP | 0.131 |
| RRIRERPPRLPRPRPRPLSAPRP | -0.229 |
| RRIRCRPPRLPRPRPRPSRGPRP | 0.333 |
| RRIRFRPPRLPRPRPRPAPRPRP | 0.84 |
| RRIRPRPPRLPRPRPRPAYDPRP | -0.26 |
| RRIRLRPPRLPRPRPRPIKTPRP | -0.0953 |
| RRIRERPPRLPRPRPRPVFGPRP | -0.0574 |
| RRIRERPPRLPRPRPRPSDCPRP | 0.00151 |
| RRIRSRPPRLPRPRPRPDMIPRP | -0.00286 |
| RRIRARPPRLPRPRPRPHPAPRP | 0.478 |
| RRIRCRPPRLPRPRPRPNMQPRP | -0.423 |
| RRIRCRPPRLPRPRPRPLMVPRP | -0.519 |
| RRIRFRPPRLPRPRPRPTWPPRP | 0.422 |
| RRIRDRPPRLPRPRPRPNCPPRP | -0.00232 |
| RRIRPRPPRLPRPRPRPCWKPRP | -0.0855 |
| RRIRYRPPRLPRPRPRPTVCPRP | -0.0618 |
| RRIRKRPPRLPRPRPRPVWAPRP | 0.316 |
| RRIRDRPPRLPRPRPRPDDCPRP | -0.00963 |

| Sequence | shrunken log2 fold change |
| --- | --- |
| RRIRMRPPRLPRPRPRPAELPRP | 0.604 |
| RRIRARPPRLPRPRPRPWNIPRP | -0.675 |
| RRIRRRPPRLPRPRPRPYVHPRP | -0.356 |
| RRIRGRPPRLPRPRPRPGRGPRP | 0.773 |
| RRIRNRPPRLPRPRPRPFTSPRP | -0.0528 |
| RRIRMRPPRLPRPRPRPFYKPRP | -0.266 |
| RRIRARPPRLPRPRPRPNWQPRP | -0.0264 |
| RRIRYRPPRLPRPRPRPAFTPRP | -0.639 |
| RRIRFRPPRLPRPRPRPEIEPRP | 0.0594 |
| RRIRNRPPRLPRPRPRPDDRPRP | 0.0384 |
| RRIRLRPPRLPRPRPRPRPHPRP | 0.364 |
| RRIRTRPPRLPRPRPRPDNDPRP | 0.0177 |
| RRIRYRPPRLPRPRPRPINNPRP | -0.892 |
| RRIRKRPPRLPRPRPRPNIRPRP | -0.0456 |
| RRIRFRPPRLPRPRPRPPVEPRP | 0.143 |
| RRIRHRPPRLPRPRPRPYYQPRP | -0.416 |
| RRIRLRPPRLPRPRPRPRQGPRP | 0.252 |
| RRIRPRPPRLPRPRPRPWCAPRP | 0.208 |
| RRIRDRPPRLPRPRPRPAVIPRP | -0.0132 |
| RRIRFRPPRLPRPRPRPLLYPRP | -1.01 |
| RRIRDRPPRLPRPRPRPKMCPRP | -0.0407 |
| RRIRARPPRLPRPRPRPRMHPRP | 0.324 |
| RRIRQRPPRLPRPRPRPVVTPRP | 0.219 |
| RRIRRRPPRLPRPRPRPEWKPRP | 0.0796 |
| RRIRSRPPRLPRPRPRPRMQPRP | 0.108 |

| Sequence | shrunken log2 fold change |
| --- | --- |
| RRIRMRPPRLPRPRPRPMHYPRP | -0.221 |
| RRIRYRPPRLPRPRPRPDGEPRP | -0.159 |
| RRIRFRPPRLPRPRPRPPTVPRP | 0.499 |
| RRIRSRPPRLPRPRPRPPNMPRP | -0.118 |
| RRIRWRPPRLPRPRPRPYEVPRP | -0.114 |
| RRIRERPPRLPRPRPRPVNVPRP | -0.531 |
| RRIRGRPPRLPRPRPRPQTHPRP | 1.41 |
| RRIRDRPPRLPRPRPRPEGVPRP | 0.166 |
| RRIRERPPRLPRPRPRPFKAPRP | 2.45 |
| RRIRFRPPRLPRPRPRPGGIPRP | -0.0183 |
| RRIRLRPPRLPRPRPRPQVAPRP | 0.0825 |
| RRIRHRPPRLPRPRPRPKKFPRP | -0.123 |
| RRIRYRPPRLPRPRPRPWWIPRP | -0.00327 |
| RRIRARPPRLPRPRPRPPTEPRP | 1.2 |
| RRIRYRPPRLPRPRPRPNWKPRP | 0.138 |
| RRIRARPPRLPRPRPRPAHAPRP | 1.07 |
| RRIRPRPPRLPRPRPRPIAEPRP | -0.0633 |
| RRIRYRPPRLPRPRPRPYPHPRP | -0.112 |
| RRIRDRPPRLPRPRPRPYSYPRP | -0.0279 |
| RRIRWRPPRLPRPRPRPYQMPRP | -0.0321 |
| RRIRGRPPRLPRPRPRPYVSPRP | -0.203 |
| RRIRSRPPRLPRPRPRPNQTPRP | 0.0606 |
| RRIRSRPPRLPRPRPRPPECPRP | 0.0423 |
| RRIRYRPPRLPRPRPRPVWTPRP | 0.0188 |
| RRIRVRPPRLPRPRPRPQPNPRP | -0.125 |

| Sequence | shrunken log2 fold change |
| --- | --- |
| RRIRMRPPRLPRPRPRPQTSPRP | 0.339 |
| RRIRLRPPRLPRPRPRPHCIPRP | -0.0543 |
| RRIRWRPPRLPRPRPRPIKQPRP | -0.00809 |
| RRIRLRPPRLPRPRPRPDMCPRP | -0.0164 |
| RRIRKRPPRLPRPRPRPIVVPRP | 0.0157 |
| RRIRTRPPRLPRPRPRPLFCPRP | -0.287 |
| RRIRRRPPRLPRPRPRPSAMPRP | 0.378 |
| RRIRHRPPRLPRPRPRPELRPRP | 0.0303 |
| RRIRMRPPRLPRPRPRPNDRPRP | 0.141 |
| RRIRFRPPRLPRPRPRPVLWPRP | 0.577 |
| RRIRQRPPRLPRPRPRPKKLPRP | -0.296 |
| RRIRPRPPRLPRPRPRPKRRPRP | -0.093 |
| RRIRDRPPRLPRPRPRPFSNPRP | -0.0771 |
| RRIRRRPPRLPRPRPRPRTVPRP | 0.693 |
| RRIRPRPPRLPRPRPRPTCFPRP | 0.0572 |
| RRIRGRPPRLPRPRPRPYASPRP | 0.143 |
| RRIRNRPPRLPRPRPRPECMPRP | 0.406 |
| RRIRTRPPRLPRPRPRPKVQPRP | -0.0279 |
| RRIRKRPPRLPRPRPRPSDIPRP | 1.14 |
| RRIRARPPRLPRPRPRPVHEPRP | 0.00256 |
| RRIRFRPPRLPRPRPRPMWNPRP | -0.363 |
| RRIRPRPPRLPRPRPRPYHNPRP | -0.785 |
| RRIRYRPPRLPRPRPRPLWPPRP | -0.135 |
| RRIRWRPPRLPRPRPRPEWEPRP | 0.00016 |
| RRIRLRPPRLPRPRPRPWMGPRP | -0.363 |
